# According to article PMC6912275, “Identification of Novel Adenylyl Cyclase 5 (AC5) Signaling Networks in D1 and D2 Medium Spiny Neurons using Bimolecular Fluorescence Complementation Screening” (Cells, 2019):
# Tests used:
# Endogenous PPP2CB = target: T1, Endogenous PPP2CB (human (endogenous in HEK 293), UniProt P62714 1-309); assay: co-IP; endogenous PPP2CB or NAPA immunoprecipitated with its antibody and protein A agarose from HEK AC5/D2L cell lysate (0.5% C12E10, 150 mM NaCl, pH 7.5); AC activity measured in the immunoprecipitate with activated Gαs and FSK; cells under vehicle conditions (PPP2CB) or treated overnight with quinpirole (NAPA); conditions: partners not purified
# T1 construct: protein phosphatase 2A catalytic subunit beta, endogenous in HEK 293 cells; also called protein phosphatase 2A (PP2A) catalytic subunit; source: endogenous, HEK AC5/D2L cell lysate
# T1 sequence (P62714 whole entry): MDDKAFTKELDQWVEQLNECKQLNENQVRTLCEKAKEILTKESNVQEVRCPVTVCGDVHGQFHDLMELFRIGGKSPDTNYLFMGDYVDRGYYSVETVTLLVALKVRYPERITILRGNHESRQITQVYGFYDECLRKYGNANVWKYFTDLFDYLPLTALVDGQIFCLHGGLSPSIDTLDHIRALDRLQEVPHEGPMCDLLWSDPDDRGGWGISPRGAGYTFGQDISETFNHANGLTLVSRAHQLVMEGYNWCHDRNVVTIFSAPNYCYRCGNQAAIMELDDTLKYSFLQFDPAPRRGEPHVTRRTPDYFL
# Endogenous NAPA = target: T2, Endogenous NAPA (human (endogenous in HEK 293), UniProt P54920 1-295); assay: as above; conditions: partners not purified
# T2 construct: NSF attachment protein alpha, endogenous in HEK 293 cells; also called NSF attachment protein alpha; source: endogenous, HEK AC5/D2L cell lysate
# T2 sequence (looked up): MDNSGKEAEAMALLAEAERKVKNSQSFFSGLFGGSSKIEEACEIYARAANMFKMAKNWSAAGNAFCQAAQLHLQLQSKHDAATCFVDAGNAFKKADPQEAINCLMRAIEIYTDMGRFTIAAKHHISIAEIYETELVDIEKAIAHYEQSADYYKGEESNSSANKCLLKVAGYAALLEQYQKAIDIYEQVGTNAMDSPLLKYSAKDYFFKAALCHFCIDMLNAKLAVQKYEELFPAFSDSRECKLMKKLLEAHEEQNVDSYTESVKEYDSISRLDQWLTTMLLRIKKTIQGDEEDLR
binder,measurement,setting,value
"human AC type 5 (in HEK-AC5/D2L cells) (enzyme, adenylyl cyclase type 5 (AC5), human; Found in the immunoprecipitates by its adenylyl cyclase activity, not by a blot; also called adenylyl cyclase type 5; source: HEK 293 cells stably expressing human D2L and human AC5 (HEK-AC5/D2L), in lysate) not shown",fold AC activity in the immunoprecipitate against the control,Endogenous PPP2CB,4 fold
same,fold AC activity in the immunoprecipitate against the vehicle-treated group,Endogenous NAPA,4.5 fold
